Experimental data published in the nanobody polyreactivity screen of Harvey et al. (2022).

Assay: yeast display, Sf9 membrane polyspecificity reagent, FACS + sequencing; frameworks hold sequencing errors
In short: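 In a synthetic yeast display library (Saccharomyces cerevisiae BJ5465), nanobody expression was induced with galactose for 36–48 hours. FACS gates were set low and high (top ~1%) using anti-HA fluorescence for expression and streptavidin fluorescence for binding of the Sf9 membrane reagent. Each polyreactivity label is drawn from the gate of origin.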

Sequence | polyreactivity (PSR sort gate)
QVQLVESGGGLVQAGGSLRLSCAASGLTFWDNAMGWYRQARGKERELVAAIRGGGSTYYADSVKGRFTISRDNAKNTVYLQMNSIIPEDTAVYYCNKQYWYWSNTLTIRDYWGQGTQVTVSS | low polyreactivity
QVQLVESGGGLVQAGGSLRLSCAASGLTFWLNAMGWYRQAPGKERELVAAIRYSGGGTYADSVKGRFTISRDNAKNTVYLQMNSLKPEDPAVYYCAALYNLGYPQFDYWGQGTQVTVSS | low polyreactivity
QVQLVESGGGLVQAGGSLRLSCAASGLTFYAYAMGWYRQAPGKERELVAAIRWSGGRTYYADSVKGRFTISRDTEKNTVYLQMNSLKPEDTAVYYCAAELSWRLYDYEYWGQGTQVTVSS | low polyreactivity
QVQLVESGGGLVQAGGSLRLSCAASGLTFYAYAMGWYRQAPGKERELVAGISRSGGRTYYADSVKGRFTISRDNAKNTVYLQMNSLKPEDTAVYYCAAGIPVTSRFYGMDWGQGTQVTVSS | high polyreactivity
QVQLVESGGGLVQAGGSLRLSCAASGLTFYCYAMGWYRQAPGKERELVAAITSGDSTYYADSVKGRFTISRDNAKNTVYLQMNSLKPEDTAVYYCAAVGGYPRYGYWGQGTQVTVSS | high polyreactivity
QVQLVESGGGLVQAGGSLRLSCAASGLTFYGYAMGWYRQAPGKERELVAAIRWSGGRTYYADSVKGRFTISRDNAKNTVYLQMNSLKPEDTAVYYCAADYSRYYGGDYWGQGTQVTVSS | low polyreactivity
QVQLVESGGGLVQAGGSLRLSCAASGLTFYGYVMGWYRQAPGKEWELVASISRSGGRTYYADSVKGRFTISRDNAKNTVFLQMNSLKPEDTAVYYCAKYLSRQSGDGEYDYWGQGTQVTVSS | low polyreactivity
QVQLVESGGGLVQAGGSLRLSCAASGLTFYHYTMGWYRQAPGKERELVAAITKNGGSTYYADSVKGRFTISRDNAKNTVYLQMNSLKPEDTAVYYCNVGPRRVDRSRAASSDYDYWGQGTQVTVSS | high polyreactivity
QVQLVESGGGLVQAGGSLRLSCAASGLTFYKNAMGWYSQAPGKERELVAAITQSGGSTYYADSVKGRFTISRDNAKNTVYLQMNSLKPEDTAVYYCAAATYLNGNNYYWGQGTQVTVSS | high polyreactivity
QVQLVESGGGLVQAGGSLRLSCAASGLTFYPYAMGWSRQAPGKERELVAAINWSGTTTYYADSVKGRFTISRDNAKNTVYLQMNSLKPEDTAVYYCNADVYYEPTTGYYLWDYDYWGQGTQVTVSS | low polyreactivity
QVQLVESGGGLVQAGGSLRLSCAASGLTFYPYAMGWYRQAPGKERELVAAITRSGTSTFYADSVKGRFTISRDNAKNTVYLQMNSLKPEETAVYYCAKGYFFVGTDWESYYWGQGTQVTVSS | low polyreactivity
QVQLVESGGGLVQAGGSLRLSCAASGLTFYQNAMGWYRPAPGTERELVAGISSVGSTKYADSVKGRFTISRDNAKNTVYLQMNSLKPEDTAVYYCAPRFYAFRKGYYYWGQGTQVTVSS | high polyreactivity
QVQLVESGGGLVQAGGSLRLSCAASGLTFYSYAMGWYRQAPGKERELVAAISKRGTNTFYADSAKGRFTISRDNAKNTVYLQMNSLKPEDTAVYYCAVDLSDSDYYWGQGTQVTVSS | low polyreactivity
QVQLVESGGGLVQAGGSLRLSCAASGLTFYSYAMGWYRQAPGKERELVAAITISGGSTYADSVKGRFTISRDNAKNTVYLQMNSLKPEDTAVYYCAVDDFRNPDYDSWGQGTQVTVSS | low polyreactivity
QVQLVESGGGLVQAGGSLRLSCAASGLTFYSYAMGWYRQAPGKERELVATIRWSGGSTYYADSVKGRFTISRDNAKNTVYLQMNSLKPEDTAVYFCAADRRINYDGLDMDYWGQGTQVTVSS | low polyreactivity
QVQLVESGGGLVQAGGSLRLSCAASGLTFYTYAMGWYRQAPGKERELVAAISSGGSTNYADSVKGRFTISRDNAKNTVYLQMNSLKPEDTAVYYCASGGQYYIIRYDYWGQGTQVTVSS | low polyreactivity
